# Measured values from the RNAGym collection of RNA variant scans (doi:10.1093/nar/gkz1192).
# B1: CPEB3 Ribozyme (parent)
# chain: UAACAGGGGGCCACAGCAGAAGCGUUCACGUCGCAGCCCCUGUCAGAUUCUGGUGAAUCUGCGAAUUCUGCUGUAUAUCUC
# Variants of: B1
# Assay: self-cleavage, relative activity (ratio to wild type); higher = more cleavage; in vitro, sequencing
# How it was run: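 Barcoded CPEB3 ribozyme mutants, produced by rounds of error-prone PCR, self-cleaved while being transcribed with T7 RNA polymerase for 5 hours at 37°C and during a subsequent 15 min DNase I step before EDTA was added. Sequencing of template-switched cDNA on Illumina gave cleaved and total reads, and DNA sequencing assigned barcodes to variants. Each variant's relative activity is its cleaved/total read fraction divided by the unmutated ribozyme's fraction, averaged across three batches. A variant needed a minimum of 5 reads.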
row,Variant,self-cleavage
1,G30A G36A,0.4
2,G30A G36U,0.44
3,G30A A75G,0.26
4,C29U C62U,0.21
5,C29U C62G,0.24
6,G30A A56G,0.37
7,G30A A56U,0.37
8,U31C C40A,0.2
9,U31C C40U,0.49
10,C29U U69G,0.35
11,C29U U69C,0.16
12,C29U U69A,0.3
13,U31C C39A,0.18
14,G30A G61C,0.24
15,G30A U43A,0.24
16,G30A U43C,0.24
17,U31A U66C,0.26
18,G30C U49C,0.08
19,C29U C81A,0.71
20,G30C U51C,0.19
21,U31A C59G,0.19

row,Variant,self-cleavage
1,U31A C59U,0.37
2,U31A C59A,0.17
3,C29U G30U,0.23
4,U31C,0.87
5,U31A,0.56
6,G30A U41C,0.22
7,G30A U41A,0.14
8,G30A U41G,0.4
9,G30A A65G,0.38
10,U31A G33A,0.24
11,U31A G33U,0.13
12,U31C A45U,0.32
13,U31C A45G,0.52
14,U31C A45C,0.22
15,U31A C32G,0.12
16,U31A C32U,0.13
17,G30A U74A,0.29
18,U31A C44U,0.23
19,U31A C40U,0.27
20,U31A C50U,0.41
21,G30U U49C,0.42

row,Variant,self-cleavage
1,G30U U49A,0.35
2,C29U U51C,0.46
3,C29U U51A,0.53
4,C29U U51G,0.8
5,C29U C59A,0.24
6,G30C U67A,0.18
7,G30C U67G,0.09
8,C29U U78C,0.44
9,C29U U78G,0.61
10,C29U U78A,0.36
11,U31A U72C,0.66
12,U31A U72A,0.41
13,G30A C39U,0.21
14,U31A A35U,0.3
15,U31A A35G,1.25
16,U31A A35C,0.27
17,G30A U76A,0.13
18,G30A U76C,0.26
19,G30U U66A,0.13
20,U31A A64G,0.39
21,U31A A64C,0.14

row,Variant,self-cleavage
1,U31A A64U,0.29
2,U31C C32U,0.22
3,U31C C32A,0.31
4,U31C C50U,0.82
5,U31C C50A,0.67
6,G30A U54C,0.43
7,U31C A77G,0.94
8,U31C A77U,0.86
9,G30A G70A,0.39
10,G30U U54C,0.14
11,U31A G42C,0.53
12,U31A G42A,0.18
13,C29U U54C,0.42
14,C29U U54A,0.54
15,G30C U41C,0.28
16,G30U C40U,0.2
17,U31A C37U,0.16
18,C29U U67C,0.23
19,C29U U67A,0.29
20,C29U U80C,0.58
